Target: importin β1 (mouse (endogenous in 3T6)) (UniProt P70168)
Assay: proximity ligation

importin β1 (mouse (endogenous in 3T6)), sequence (P70168 whole entry): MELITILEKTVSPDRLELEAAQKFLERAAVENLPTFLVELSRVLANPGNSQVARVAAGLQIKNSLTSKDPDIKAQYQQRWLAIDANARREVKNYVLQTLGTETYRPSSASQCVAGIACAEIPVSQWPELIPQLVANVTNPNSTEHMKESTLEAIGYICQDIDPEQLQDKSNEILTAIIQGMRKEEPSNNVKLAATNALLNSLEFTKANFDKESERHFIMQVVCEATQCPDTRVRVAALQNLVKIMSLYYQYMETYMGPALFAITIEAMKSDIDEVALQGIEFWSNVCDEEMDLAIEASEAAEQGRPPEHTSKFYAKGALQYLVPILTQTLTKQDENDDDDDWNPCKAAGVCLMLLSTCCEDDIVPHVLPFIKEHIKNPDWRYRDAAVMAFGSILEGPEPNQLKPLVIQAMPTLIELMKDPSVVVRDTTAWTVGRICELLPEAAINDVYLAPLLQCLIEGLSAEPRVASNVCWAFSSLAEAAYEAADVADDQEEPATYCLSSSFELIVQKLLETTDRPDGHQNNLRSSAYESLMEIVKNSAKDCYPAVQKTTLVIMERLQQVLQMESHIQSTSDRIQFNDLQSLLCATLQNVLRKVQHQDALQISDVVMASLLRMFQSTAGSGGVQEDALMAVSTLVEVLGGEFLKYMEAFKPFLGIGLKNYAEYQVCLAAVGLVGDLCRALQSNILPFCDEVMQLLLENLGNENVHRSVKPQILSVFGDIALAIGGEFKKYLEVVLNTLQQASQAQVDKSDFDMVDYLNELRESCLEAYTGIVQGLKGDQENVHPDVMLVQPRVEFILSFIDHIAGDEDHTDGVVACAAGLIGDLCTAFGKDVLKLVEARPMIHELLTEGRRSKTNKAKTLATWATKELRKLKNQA
wild type mouse polyomavirus (MPyV) virions, strain A3 (capsid proteins VP1, VP2 and VP3), sequence (P03097 whole entry, looked up): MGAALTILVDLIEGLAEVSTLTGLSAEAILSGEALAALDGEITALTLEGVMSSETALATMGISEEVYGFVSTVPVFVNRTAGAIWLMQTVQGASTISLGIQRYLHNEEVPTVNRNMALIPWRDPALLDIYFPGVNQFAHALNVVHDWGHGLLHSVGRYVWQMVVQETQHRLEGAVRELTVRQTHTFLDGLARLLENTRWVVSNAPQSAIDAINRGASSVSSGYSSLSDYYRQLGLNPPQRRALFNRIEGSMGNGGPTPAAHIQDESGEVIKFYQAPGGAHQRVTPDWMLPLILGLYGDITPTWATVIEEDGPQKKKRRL
wild type mouse polyomavirus (MPyV) virions, strain A3 (capsid proteins VP1, VP2 and VP3), sequence (P03091 whole entry, looked up): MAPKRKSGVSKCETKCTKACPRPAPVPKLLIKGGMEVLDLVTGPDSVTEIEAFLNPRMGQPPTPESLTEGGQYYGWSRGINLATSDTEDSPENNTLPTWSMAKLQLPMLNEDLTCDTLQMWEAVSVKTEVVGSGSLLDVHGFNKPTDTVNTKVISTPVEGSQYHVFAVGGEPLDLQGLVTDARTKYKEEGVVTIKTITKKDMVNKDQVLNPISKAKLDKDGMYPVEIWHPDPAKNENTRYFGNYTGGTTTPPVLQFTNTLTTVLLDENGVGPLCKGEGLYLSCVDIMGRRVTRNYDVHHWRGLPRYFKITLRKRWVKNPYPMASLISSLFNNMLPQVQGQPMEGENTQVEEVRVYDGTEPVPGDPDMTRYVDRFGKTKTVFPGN

wild type mouse polyomavirus (MPyV) virions, strain A3 (capsid proteins VP1, VP2 and VP3) (from UniProt P03091;P03097) (complex)
PLA spots per 50 cells (spots per 50 cells): > 1000

— article PMC5923459
